Tests used:
A-beta fibrils = target: T1, A-beta fibrils (UniProt P05067 672-713, limits assumed); experiment: dot blot
T1 construct: Amyloid fibrils of A-beta spotted in the dot blot; also called β-amyloid
Procedure: (§1) The membranes were blocked with 5% skimmed milk in PBST (PBS containing 0.05% Tween) and incubated for 1 h at room temperature. […] The membranes were washed and incubated with either 1/20000 diluted goat anti-mouse IgG-HRP (Jackson ImmunoResearch) or 1/10000 diluted goat anti-rabbit IgG-HRP (Jackson Immunoresearch) for 1 h at room temperature. The blots were then developed with Super signal West Pico chemiluminescent substrate.
(§2) C) To test the cross reactivity of our conformational monoclonal antibodies to different fragments of α-synuclein. […] The membranes were washed before incubating with either 1/20000 diluted goat anti-mouse IgG-HRP conjugate (Jackson Immunoresearch) or 1/300000 diluted chicken anti-goat IgG-HRP conjugate (Santa Cruz Biotechnology) for 1 h at room temperature. The blots were then developed with Super signal West Pico chemiluminescent substrate.

A-beta monomers = target: T2, A-beta monomers (UniProt P05067 672-713, limits assumed); experiment: dot blot
T2 construct: also called β-amyloid monomers
Procedure: as §1, §2

IAPP fibrils = target: T3, IAPP fibrils (UniProt P10997 34-70); experiment: dot blot
T3 construct: Amyloid fibrils of IAPP spotted in the dot blot; also called islet amyloid polypeptide
T3 peptide (looked up): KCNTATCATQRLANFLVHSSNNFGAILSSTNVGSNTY
Procedure: as §1, §2

IAPP monomers = target: T4, IAPP monomers (UniProt P10997 34-70); experiment: dot blot
T4 peptide (looked up): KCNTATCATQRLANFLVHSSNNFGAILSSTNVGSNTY
Procedure: as §1, §2

β-synuclein fibrils = β-synuclein fibrils (UniProt Q16143 1-134); experiment: dot blot
Procedure: as §1, §2

β-synuclein monomers = β-synuclein monomers (UniProt Q16143 1-134); experiment: dot blot
Procedure: as §1, §2

γ-synuclein fibrils = γ-synuclein fibrils (UniProt O76070 1-127); experiment: dot blot
Procedure: as §1, §2

γ-synuclein monomers = γ-synuclein monomers (UniProt O76070 1-127); experiment: dot blot
Procedure: as §1, §2

fibrils of NAC (61-95) = target: T5, fibrils of NAC (61-95) (human); experiment: dot blot
T5 construct: also called NAC region (61-95) (F)
Procedure: as §1, §2

fibrils of NAC (61-78) = target: T6, fibrils of NAC (61-78) (human); experiment: dot blot
T6 construct: also called NAC (61-78) (F)
T6 peptide: EQVTNVGGAVVTGVTAVA
Procedure: as §1, §2

[1] = target: T7, α-synuclein peptide 1 (1-14) (human); experiment: pepscan ELISA
T7 construct: also called Peptide No. 1
T7 peptide: MDVFMKGLSKAKEG
Procedure: (§3) To confirm the pepscan results using dot blot the mAbs were also tested by Pepscan using ELISA. […] The plate was washed with PBST and 50 μl of substrate (SuperSignal ELISA Femto Maximum Sensitivity Substrate, Thermo Scientific) was added and immediately read the plate using Victor X3 microtiter plate reader. After the ELISA signals were measured, the plate was also exposed onto X-ray film to develop the spots.

[2] = target: T8, α-synuclein peptide 2 (8-21) (human); experiment: pepscan ELISA
T8 construct: also called Peptide No. 2
T8 peptide: LSKAKEGVVAAAEK
Procedure: as §3

[3] = target: T9, α-synuclein peptide 3 (15-28) (human); experiment: pepscan ELISA
T9 construct: also called Peptide No. 3
T9 peptide: VVAAAEKTKQGVAE
Procedure: as §3

[4] = target: T10, α-synuclein peptide 6 (36-49) (human); experiment: pepscan ELISA
T10 construct: also called Peptide No. 6
T10 peptide: GVLYVGSKTKEGVV
Procedure: as §3

[5] = target: T11, α-synuclein peptide 7 (43-56) (human); experiment: pepscan ELISA
T11 construct: also called Peptide No. 7
T11 peptide: KTKEGVVHGVATVA
Procedure: as §3

[6] = target: T12, α-synuclein peptide 8 (50-63) (human); experiment: pepscan ELISA
T12 construct: also called Peptide No. 8
T12 peptide: HGVATVAEKTKEQV
Procedure: as §3

[7] = target: T13, α-synuclein peptide 9 (57-70) (human); experiment: pepscan ELISA
T13 construct: also called Peptide No. 9
T13 peptide: EKTKEQVTNVGGAV
Procedure: as §3

[8] = target: T14, α-synuclein peptide 10 (64-77) (human); experiment: pepscan ELISA
T14 construct: also called Peptide No. 10
T14 peptide: TNVGGAVVTGVTAV
Procedure: as §3

[9] = target: T15, α-synuclein peptide 11 (71-84) (human); experiment: pepscan ELISA
T15 construct: also called Peptide No. 11
T15 peptide: VTGVTAVAQKTVEG
Procedure: as §3

[10] = target: T16, α-synuclein peptide 12 (78-91) (human); experiment: pepscan ELISA
T16 construct: also called Peptide No. 12
T16 peptide: AQKTVEGAGSIAAA
Procedure: as §3

[11] = target: T17, α-synuclein peptide 13 (85-98) (human); experiment: pepscan ELISA
T17 construct: also called Peptide No. 13
T17 peptide: AGSIAAATGFVKKD
Procedure: as §3

[12] = target: T18, α-synuclein peptide 14 (92-105) (human); experiment: pepscan ELISA
T18 construct: also called Peptide No. 14
T18 peptide: TGFVKKDQLGKNEE
Procedure: as §3

[13] = target: T19, α-synuclein peptide 15 (99-112) (human); experiment: pepscan ELISA
T19 construct: also called Peptide No. 15
T19 peptide: QLGKNEEGAPQEGI
Procedure: as §3

[14] = target: T20, α-synuclein peptide 16 (106-119) (human); experiment: pepscan ELISA
T20 construct: also called Peptide No. 16
T20 peptide: GAPQEGILEDMPVD
Procedure: as §3

[15] = target: T21, α-synuclein peptide 17 (113-126) (human); experiment: pepscan ELISA
T21 construct: also called Peptide No. 17
T21 peptide: LEDMPVDPDNEAYE
Procedure: as §3

[16] = target: T22, α-synuclein peptide 18 (120-133) (human); experiment: pepscan ELISA
T22 construct: also called Peptide No. 18
T22 peptide: PDNEAYEMPSEEGY
Procedure: as §3

Sequence of β-synuclein monomers (Q16143 whole entry): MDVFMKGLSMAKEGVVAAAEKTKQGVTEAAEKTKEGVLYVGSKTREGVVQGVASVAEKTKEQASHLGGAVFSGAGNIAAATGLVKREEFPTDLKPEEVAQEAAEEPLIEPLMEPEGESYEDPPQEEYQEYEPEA
Sequence of β-synuclein fibrils (Q16143 whole entry): as above
Sequence of γ-synuclein monomers (O76070 whole entry): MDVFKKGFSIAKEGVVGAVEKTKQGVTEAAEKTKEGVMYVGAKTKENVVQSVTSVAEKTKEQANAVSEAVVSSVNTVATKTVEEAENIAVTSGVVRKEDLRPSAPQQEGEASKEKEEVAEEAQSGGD
Sequence of γ-synuclein fibrils (O76070 whole entry): as above

B1: Syn-F1 (antibody, V domains shown)
VH: DVQLVESGGDLVQPGGSRKLSCAASGFTFSSFGMHWVRQAPEKGLEWVAYINSGSSTIYYADTVKGRFTISRDNPKNTLFLQMTSLRSEDTAMYYCARGNNPGTGYYYSMDYWGQGTSVTVSS
VL: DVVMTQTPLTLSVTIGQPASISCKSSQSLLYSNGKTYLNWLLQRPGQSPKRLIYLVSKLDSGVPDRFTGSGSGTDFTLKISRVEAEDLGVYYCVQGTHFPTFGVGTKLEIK
notes: also called mAb Syn-F1
binding result (A-beta fibrils): no binding (tested: 50 ng/ml antibody, 50 ng spotted) | binding result (A-beta monomers): no binding (tested: 50 ng/ml antibody, 50 ng spotted) | binding result (IAPP fibrils): no binding (tested: 50 ng/ml antibody, 50 ng spotted) | binding result (IAPP monomers): no binding (tested: 50 ng/ml antibody, 50 ng spotted) | binding result (β-synuclein fibrils): no binding (tested: 50 ng spotted) | binding result (β-synuclein monomers): no binding (tested: 50 ng spotted) | binding result (γ-synuclein fibrils): no binding (tested: 50 ng spotted) | binding result (γ-synuclein monomers): no binding (tested: 50 ng spotted) | binding result (fibrils of NAC (61-95)): no binding (tested: 50 ng spotted) | binding result (fibrils of NAC (61-78)): no binding (tested: 50 ng spotted) | binding result [1]: no binding (tested: 100 ng/ml antibody, 500 ng/well peptide) | binding result [2]: no binding (tested: 100 ng/ml antibody, 500 ng/well peptide) | binding result [3]: no binding (tested: 100 ng/ml antibody, 500 ng/well peptide) | binding result [4]: no binding (tested: 100 ng/ml antibody, 500 ng/well peptide) | binding result [5]: no binding (tested: 100 ng/ml antibody, 500 ng/well peptide) | binding result [6]: no binding (tested: 100 ng/ml antibody, 500 ng/well peptide) | binding result [7]: no binding (tested: 100 ng/ml antibody, 500 ng/well peptide) | binding result [8]: no binding (tested: 100 ng/ml antibody, 500 ng/well peptide) | binding result [9]: no binding (tested: 100 ng/ml antibody, 500 ng/well peptide) | binding result [10]: no binding (tested: 100 ng/ml antibody, 500 ng/well peptide) | binding result [11]: no binding (tested: 100 ng/ml antibody, 500 ng/well peptide) | binding result [12]: no binding (tested: 100 ng/ml antibody, 500 ng/well peptide) | binding result [13]: no binding (tested: 100 ng/ml antibody, 500 ng/well peptide) | binding result [14]: no binding (tested: 100 ng/ml antibody, 500 ng/well peptide) | binding result [15]: no binding (tested: 100 ng/ml antibody, 500 ng/well peptide) | binding result [16]: no binding (tested: 100 ng/ml antibody, 500 ng/well peptide)

B2: Syn-F2 (antibody, IgG2a, V domains shown)
VH: DVQLVESGGGLVQPGGSRKLSCAASGFTFSSFGMHWVRQAPEKGLEWVAYISSGSSTIYYADTVKGRFTISRDNPKNTLFLQMTSLRSEDTAMYYCARGNNPGTGYYYAMDYWGQGTSVTVSS
VL: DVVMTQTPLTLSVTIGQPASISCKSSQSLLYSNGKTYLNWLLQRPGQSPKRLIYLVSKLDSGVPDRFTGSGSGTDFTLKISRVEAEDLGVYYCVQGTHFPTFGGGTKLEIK
notes: also called mAb Syn-F2
binding result (A-beta fibrils): no binding (tested: 50 ng/ml antibody, 50 ng spotted) | binding result (A-beta monomers): no binding (tested: 50 ng/ml antibody, 50 ng spotted) | binding result (IAPP fibrils): no binding (tested: 50 ng/ml antibody, 50 ng spotted) | binding result (IAPP monomers): no binding (tested: 50 ng/ml antibody, 50 ng spotted) | binding result (β-synuclein fibrils): no binding (tested: 50 ng spotted) | binding result (β-synuclein monomers): no binding (tested: 50 ng spotted) | binding result (γ-synuclein fibrils): no binding (tested: 50 ng spotted) | binding result (γ-synuclein monomers): no binding (tested: 50 ng spotted) | binding result (fibrils of NAC (61-95)): no binding (tested: 50 ng spotted) | binding result (fibrils of NAC (61-78)): no binding (tested: 50 ng spotted) | binding result [1]: no binding (tested: 100 ng/ml antibody, 500 ng/well peptide) | binding result [2]: no binding (tested: 100 ng/ml antibody, 500 ng/well peptide) | binding result [3]: no binding (tested: 100 ng/ml antibody, 500 ng/well peptide) | binding result [4]: no binding (tested: 100 ng/ml antibody, 500 ng/well peptide) | binding result [5]: no binding (tested: 100 ng/ml antibody, 500 ng/well peptide) | binding result [6]: no binding (tested: 100 ng/ml antibody, 500 ng/well peptide) | binding result [7]: no binding (tested: 100 ng/ml antibody, 500 ng/well peptide) | binding result [8]: no binding (tested: 100 ng/ml antibody, 500 ng/well peptide) | binding result [9]: no binding (tested: 100 ng/ml antibody, 500 ng/well peptide) | binding result [10]: no binding (tested: 100 ng/ml antibody, 500 ng/well peptide) | binding result [11]: no binding (tested: 100 ng/ml antibody, 500 ng/well peptide) | binding result [12]: no binding (tested: 100 ng/ml antibody, 500 ng/well peptide) | binding result [13]: no binding (tested: 100 ng/ml antibody, 500 ng/well peptide) | binding result [14]: no binding (tested: 100 ng/ml antibody, 500 ng/well peptide) | binding result [15]: no binding (tested: 100 ng/ml antibody, 500 ng/well peptide) | binding result [16]: no binding (tested: 100 ng/ml antibody, 500 ng/well peptide)

B3: Syn-O1 (antibody, IgG2b, V domains shown)
VH: EVQLVESGGGLVQPKGSLKLSCAASGFTFNTYAMHWVRQAPGKGLEWVARIRSKSSNYATYYADSVKDRFTISRDDSQSMLYLQMNNLKTEDTAMYYCVRPLKWYFDVWGTGTTVTVSS
VL: QIVLTQSPAILSASPGEKVTMTCSASSTVNYMHWYQQKSGTSPKIWIYDTSKLASGVPARFSGSGSWTSYSLTISSMEAEDAATYYCQQWNSNPPTFGAGTKLELK
notes: also called mAb Syn-O1
binding result (A-beta fibrils): no binding (tested: 50 ng/ml antibody, 50 ng spotted) | binding result (A-beta monomers): no binding (tested: 50 ng/ml antibody, 50 ng spotted) | binding result (IAPP fibrils): no binding (tested: 50 ng/ml antibody, 50 ng spotted) | binding result (IAPP monomers): no binding (tested: 50 ng/ml antibody, 50 ng spotted) | binding result (β-synuclein fibrils): no binding (tested: 50 ng spotted) | binding result (β-synuclein monomers): no binding (tested: 50 ng spotted) | binding result (γ-synuclein fibrils): no binding (tested: 50 ng spotted) | binding result (γ-synuclein monomers): no binding (tested: 50 ng spotted) | binding result (fibrils of NAC (61-95)): no binding (tested: 50 ng spotted) | binding result (fibrils of NAC (61-78)): no binding (tested: 50 ng spotted) | binding result [1]: no binding (tested: 100 ng/ml antibody, 500 ng/well peptide) | binding result [2]: no binding (tested: 100 ng/ml antibody, 500 ng/well peptide) | binding result [3]: no binding (tested: 100 ng/ml antibody, 500 ng/well peptide) | binding result [4]: no binding (tested: 100 ng/ml antibody, 500 ng/well peptide) | binding result [5]: no binding (tested: 100 ng/ml antibody, 500 ng/well peptide) | binding result [6]: no binding (tested: 100 ng/ml antibody, 500 ng/well peptide) | binding result [7]: no binding (tested: 100 ng/ml antibody, 500 ng/well peptide) | binding result [8]: no binding (tested: 100 ng/ml antibody, 500 ng/well peptide) | binding result [9]: no binding (tested: 100 ng/ml antibody, 500 ng/well peptide) | binding result [10]: no binding (tested: 100 ng/ml antibody, 500 ng/well peptide) | binding result [11]: no binding (tested: 100 ng/ml antibody, 500 ng/well peptide) | binding result [12]: no binding (tested: 100 ng/ml antibody, 500 ng/well peptide) | binding result [13]: no binding (tested: 100 ng/ml antibody, 500 ng/well peptide) | binding result [14]: no binding (tested: 100 ng/ml antibody, 500 ng/well peptide) | binding result [15]: no binding (tested: 100 ng/ml antibody, 500 ng/well peptide) | binding result [16]: no binding (tested: 100 ng/ml antibody, 500 ng/well peptide)

Reference: patent US20140241984A1 (UNITED ARAB EMIRATES UNIVERSITY, published 2014)
